Test results taken from patent US20110059095A1.
Blank lines part the entries; values can stand above or below the binder they belong to.

Legend:
[1] = target: full length mouse PAR-2 (mouse) (UniProt P55086); experiment: cell-based or functional assay
[2] = target: monkey PAR-2 (monkey); experiment: cell-based or functional assay
[3] = target: full length human PAR-2 (human) (UniProt P55085); experiment: cell-based or functional assay
[4] = target: full length human PAR-2 (human) (UniProt P55085); experiment: cell ELISA, 10 ug/ml antibody

Chain of full length human PAR-2 (human) (P55085 26-397 G138A limits assumed): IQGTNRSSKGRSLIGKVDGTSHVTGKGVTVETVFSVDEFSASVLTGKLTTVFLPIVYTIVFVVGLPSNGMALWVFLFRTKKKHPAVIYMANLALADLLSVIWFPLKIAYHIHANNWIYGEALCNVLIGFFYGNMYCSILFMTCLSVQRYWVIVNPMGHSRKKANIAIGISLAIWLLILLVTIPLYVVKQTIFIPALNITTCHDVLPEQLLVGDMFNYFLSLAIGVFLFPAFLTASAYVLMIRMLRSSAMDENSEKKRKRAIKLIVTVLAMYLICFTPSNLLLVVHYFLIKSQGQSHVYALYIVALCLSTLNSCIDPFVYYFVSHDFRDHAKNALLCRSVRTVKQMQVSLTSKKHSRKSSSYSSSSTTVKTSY
Chain of full length mouse PAR-2 (mouse) (P55086 other isoform, or with tags, fused parts or gaps limits assumed): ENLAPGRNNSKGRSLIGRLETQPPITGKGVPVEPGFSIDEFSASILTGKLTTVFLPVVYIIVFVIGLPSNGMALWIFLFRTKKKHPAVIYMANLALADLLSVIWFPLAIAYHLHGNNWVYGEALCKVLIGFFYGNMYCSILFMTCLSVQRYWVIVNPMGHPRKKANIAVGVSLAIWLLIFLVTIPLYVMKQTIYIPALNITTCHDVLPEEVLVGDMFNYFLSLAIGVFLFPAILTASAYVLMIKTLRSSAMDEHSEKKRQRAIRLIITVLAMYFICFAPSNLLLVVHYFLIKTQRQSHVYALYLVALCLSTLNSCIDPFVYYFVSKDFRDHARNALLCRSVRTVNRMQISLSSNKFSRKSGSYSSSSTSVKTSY

EC50 of activator, NF-kB-luciferase [1]: 8 nM
EC50 of activator, NF-kB-luciferase [2]: 6.3 nM
EC50 of activator, NF-kB-luciferase [3]: 5 nM
B1: Human Kallikrein 14 (enzyme, UniProt Q9P0G3 25-251, looked up)
chain: IIGGHTCTRSSQPWQAALLAGPRRRFLCGGALLSGQWVITAAHCGRPILQVALGKHNLRRWEATQQVLRVVRQVTHPNYNSRTHDNDLMLLQLQQPARIGRAVRPIEVTQACASPGTSCRVSGWGTISSPIARYPASLQCVNINISPDEVCQKAYPRTITPGMVCAGVPQGGKDSCQGDSGGPLVCRGQLQGLVSWGMERCALPGYPGVYTNLCKYRSWIEETMRDK

A450 ratio (293/D9/hPAR-2rec to 293/D9 cells) [4]: 1.76
B2: H2M611N (antibody, V domains shown)
VH: EVQLLESGGGLVQPGGSLRLSCAASGFTFSSYAMTWVRQAPGKGLYWVSAISGSGGSAYYADSVKGRFTISRDNSKNTLYLQMNSLRAEDTAVYYCAKEGDSGYDLDYWGRGTLVTVSS
VL: DIQMTQSPSSLSASVGDRVTITCRARQGISNYLAWLQQKPGKAPKSLIYAASSLQSGVPSKFSGSGSGTDFTLTISSLQPEDFATYYCQQYKSSPLTFGGGTKVEIK

H4H581P IC50, NF-kB-luciferase, Bovine Factor Xa [1]: 340 nM
H4H581P IC50, NF-kB-luciferase, Human Factor Xa [1]: 109 nM
H4H581P IC50, NF-kB-luciferase, Human Kallikrein 14 [1]: 256 nM
H4H581P IC50, NF-kB-luciferase, Human Pancreatic Trypsin [1]: 491 nM
B3: H4H581P (antibody, human IgG4, V domains shown)
VH: QVQLVESGGGVVQPGRSLRLSCVASGFTFSRYGIHWVRQAPGKGLEWVIVISYDGINKYYADSVKGRFTISRDNSKNTVYLQMNSLRAEDTAVYYCAKGDFWSGYFDYWGQGTLVTVSS
VL: DIVMTQTPLSSPVTLGQPASISCRSSQSLVHSDGNTYLSWLHQRPGQPPRLLIYKISNRFSGVPDRFSGSGAGTDFTLQISRVEAEDVGIYYCMQATQFPTFGGGTKVEIK

A450 ratio (293/D9/hPAR-2rec to 293/D9 cells) [4]: 1.24
B4: H3M620N (antibody, V domains shown)
VH: EVQLVESGGNVVRPGGSLRLSCAASGFTFDDYGMTWVRQVPGKGLEWVSGINWNGGSTDYADSVKGRFTISRDNAKNSLYLQMNSLRAEDTALYYCARDKGFYGMDVWGQGTTVTVSS
VL: DIVMTQSPDSLAVSLGERATINCKSSQNPLYNSNKKKYLAWYQQKPGQPPKLVIYWASTRESGVPDRFSGSGSGTDFTLTITSLQAEDVAVYYCQQYYSTPYTFGQGTKLEIK

A450 ratio (293/D9/hPAR-2rec to 293/D9 cells) [4]: 1.54
B5: H2M609N (antibody, V domains shown)
VH: EVQLVESGGGLVQPGRSLRLSCAASGFTFDDYAMHWVRQAPGKGLEWVSGISWNSGSKGFADSVKGRFTISRDNAKNSLYLQMNSLRVEDTALYYCAKENWSFDYWGQGTLVTVSS
VL: DIVMTQTPLSSPVTLGQPASISCRSSQSLVHSDGNIYLSWLQQRPGQPPRLLIYKISNRFSGVPDRFSGSGAGTDFTLKISRVEAEDVGIYYCMQASHFPYTFGQGTKLEIK

A450 ratio (293/D9/hPAR-2rec to 293/D9 cells) [4]: 1.51
B6: H1M619N (antibody, V domains shown)
VH: EVQLVESGGGLVQAGRSLRLSCAASGFTFDDYAMHWVRQAPGKGLEWVSGISWNSGSRGYADSVKGRFTISRDNAKNSLHLQMYSLRAEDTALYYCAKENWSFDYWGQGTLVTVSS
VL: DIVMTQTPLSSPVTLGQPASISCRSSQSLVHSDGNTYLSWLQQRPGQPPRLLIYKISYRFSGVPDRFSGSGAGTDFTLKISRVATEDVGVYYCMQATQLPYTFGQGTKLEIK
